Test results published in the supplement of paper PMC10126150.
± gives the standard deviation of the averaged measurements.

Tested on: ATP
Test: switch fluorescence ratio, 500 uM ATP over buffer (Cy3 cluster intensity, sum of 5 cycles each) (fold (ratio)); higher = stronger signal-on switching upon ATP binding; sequences stand for … in TCGTCGGCAGCGTCAGATGTGTATAAGAGACAGTTTTTTTTTTTTTTTTTTTTTTTTT…TC
Details: aptamer strand: ATP DNA aptamer (quencher-CACCTGGGGGAGTATTGCGGAGGAAGG + anchor), 100 nM annealed; ATP concentration: 500 uM
In short: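 Cy3-labelled switching-strand clusters on a modified Illumina MiSeq flow-cell were annealed to 100 nM quencher-labelled ATP aptamer and imaged first in selection buffer, then after 15 min with 500 uM ATP at 22 °C. NaOH stripping and re-annealing separated each of five buffer/ATP cycles, and clusters outside 100-1000 RFU were excluded. The fluorescence ratio sums target-cycle Cy3 intensity over buffer-cycle Cy3 intensity per cluster and averages it per switch-domain sequence.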
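Further: ATP exposure 15 min at 22 °C before imaging.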

Row | Sequence | switch fluorescence ratio
1 | AAAAAAACCT | 1.28 ± 0.39
2 | AAAAAAAGAT | 1.01 ± 0.039
3 | AAAAAAGAAA | 0.982 ± 0.015
4 | AAAAAAGACG | 1.05 ± 0.017
5 | AAAAAATTGC | 1.04 ± 0.058
6 | AAAAAATTTT | 1.01 ± 0.023
7 | AAAAACATAG | 1.03 ± 0.017
8 | AAAAACGGGG | 1.009 ± 0.0075
9 | AAAAACGTAT | 1.03 ± 0.04
10 | AAAAACTAAT | 0.992 ± 0.088
11 | AAAAAGCTGG | 1.03 ± 0.038
12 | AAAAAGGATA | 0.9884 ± 0.0013
13 | AAAAAGTGCC | 1.07 ± 0.11
14 | AAAAAGTTTG | 1 ± 0.04
15 | AAAAATAGTT | 1.03 ± 0.07
16 | AAAAATCGAA | 1.02 ± 0.05
17 | AAAAATGACG | 0.991 ± 0.028
18 | AAAAATGGAG | 0.958 ± 0.017
19 | AAAAATTTGG | 1 ± 0.06
20 | AAAACACGCT | 1.18 ± 0.2
21 | AAAACAGTT | 1.05 ± 0.02
22 | AAAACCAGGG | 1.08 ± 0.033
23 | AAAACCAGTA | 1.01 ± 0.075
24 | AAAACCTCAC | 1.56 ± 0.13
25 | AAAACGACAG | 1.04 ± 0.013

Row | Sequence | switch fluorescence ratio
26 | AAAACTTAGA | 0.956 ± 0.041
27 | AAAACTTAGG | 0.978 ± 0.012
28 | AAAACTTCCT | 2.5 ± 0.67
29 | AAAAGAGTGT | 1.01 ± 0.023
30 | AAAAGATAGC | 0.989 ± 0.04
31 | AAAAGATTGT | 1.043 ± 0.0085
32 | AAAAGCATGT | 1.06 ± 0.03
33 | AAAAGGAGGA | 1.02 ± 0.043
34 | AAAAGGATCT | 1.02 ± 0.029
35 | AAAAGGATTG | 0.982 ± 0.04
36 | AAAAGGGCAT | 1.01 ± 0.015
37 | AAAAGGGCTT | 1 ± 0.012
38 | AAAAGGGTGA | 1.02 ± 0.01
39 | AAAAGGTTTC | 1.02 ± 0.024
40 | AAAAGTCTGA | 1.01 ± 0.041
41 | AAAAGTGGGG | 1.02 ± 0.019
42 | AAAAGTGTCG | 1.06 ± 0.056
43 | AAAATAAATG | 1.01 ± 0.017
44 | AAAATAAGGA | 0.986 ± 0.018
45 | AAAATAATTG | 1.03 ± 0.025
46 | AAAATACATT | 0.993 ± 0.039
47 | AAAATACCTA | 1.15 ± 0.14
48 | AAAATAGGGG | 1.04 ± 0.044
49 | AAAATCATTG | 0.9615 ± 0.0027
50 | AAAATCGAGC | 1.02 ± 0.015

Row | Sequence | switch fluorescence ratio
51 | AAAATCGAGG | 1.016 ± 0.004
52 | AAAATCGCGG | 0.9844 ± 0.0018
53 | AAAATCGTGA | 1.009 ± 0.0097
54 | AAAATGAAAA | 0.987 ± 0.0071
55 | AAAATGATGG | 1 ± 0.0073
56 | AAAATGGTAA | 1.001 ± 0.0057
57 | AAAATGTGGT | 1 ± 0.015
58 | AAAATGTGTT | 1.01 ± 0.018
59 | AAAATTAGGC | 0.919 ± 0.063
60 | AAAATTGGGA | 1.01 ± 0.035
61 | AAAATTTACG | 1.1 ± 0.16
62 | AAAATTTGGT | 1.04 ± 0.029
63 | AAAATTTTGC | 1.12 ± 0.2
64 | AAACACTAAG | 1.08 ± 0.016
65 | AAACAGCGTA | 1.01 ± 0.032
66 | AAACAGGGTG | 1.05 ± 0.05
67 | AAACATACCT | 1.4 ± 0.078
68 | AAACATAGGA | 0.992 ± 0.063
69 | AAACATATAT | 1.018 ± 0.0098
70 | AAACCAGGGG | 1.54 ± 0.11
71 | AAACCCGCCC | 1.8128 ± 0.00028
72 | AAACCGATGG | 1.046 ± 0.0085
73 | AAACGATATT | 1.015 ± 0.0026
74 | AAACGGACGC | 1.2 ± 0.023
75 | AAACGGAGTG | 1 ± 0.023

Row | Sequence | switch fluorescence ratio
76 | AAACGGGCAG | 0.985 ± 0.019
77 | AAACGGTTAC | 1.24 ± 0.038
78 | AAACTATGGA | 0.961 ± 0.022
79 | AAACTGGAAA | 0.99 ± 0.016
80 | AAACTGGAG | 1.04 ± 0.053
81 | AAACTGGTAT | 0.982 ± 0.02
82 | AAACTGTTTC | 1.02 ± 0.016
83 | AAACTTAATC | 1.04 ± 0.05
84 | AAACTTGGCT | 1.024 ± 0.0074
85 | AAACTTTAGT | 0.987 ± 0.018
86 | AAAGAAAGAT | 1.08 ± 0.17
87 | AAAGAAAGTC | 1.043 ± 0.006
88 | AAAGAAGACG | 1.0319 ± 0.00064
89 | AAAGAATTTC | 0.981 ± 0.038
90 | AAAGACAAAT | 0.999 ± 0.042
91 | AAAGAGAATA | 0.987 ± 0.036
92 | AAAGAGACGC | 1.03 ± 0.068
93 | AAAGAGAGAA | 0.9998 ± 0.0093
94 | AAAGAGAGTT | 0.9964 ± 0.0065
95 | AAAGAGTCGT | 0.9883 ± 0.0027
96 | AAAGAGTGAA | 0.9989 ± 0.009
97 | AAAGAGTGAT | 1.022 ± 0.0062
98 | AAAGATATC | 0.984 ± 0.02
99 | AAAGATGAGG | 0.974 ± 0.029
100 | AAAGCAGGTA | 0.989 ± 0.029

Row | Sequence | switch fluorescence ratio
101 | AAAGCAGTAT | 1.14 ± 0.068
102 | AAAGCCGCTG | 1.02 ± 0.033
103 | AAAGCCGTAG | 1.003 ± 0.0082
104 | AAAGCGAAGG | 1.01 ± 0.044
105 | AAAGCTCGTA | 1.06 ± 0.054
106 | AAAGCTGGGA | 1.01 ± 0.019
107 | AAAGCTTATT | 0.99822 ± 0.00097
108 | AAAGCTTGAT | 1.01 ± 0.02
109 | AAAGCTTTTC | 1.07 ± 0.01
110 | AAAGGACGAG | 0.983 ± 0.019
111 | AAAGGAGAGG | 1.01 ± 0.05
112 | AAAGGAGGTC | 1.05 ± 0.033
113 | AAAGGAGGTT | 1 ± 0.028
114 | AAAGGATAAT | 1.01 ± 0.0077
115 | AAAGGATAGC | 1.017 ± 0.0044
116 | AAAGGCGGTG | 0.976 ± 0.023
117 | AAAGGGAGAT | 1.027 ± 0.0085
118 | AAAGGGAGGA | 1.02 ± 0.036
119 | AAAGGGAGTA | 0.999 ± 0.041
120 | AAAGGGCCAG | 1.02 ± 0.02
121 | AAAGGGCGCA | 1.02 ± 0.017
122 | AAAGGGCTGT | 1.01 ± 0.043
123 | AAAGGGGAGT | 1.04 ± 0.11
124 | AAAGGGGGAG | 0.997 ± 0.011
125 | AAAGGGGGTT | 1.04 ± 0.042

Row | Sequence | switch fluorescence ratio
126 | AAAGGGGTTA | 1 ± 0.024
127 | AAAGGGTAAC | 0.988 ± 0.036
128 | AAAGGGTGGG | 1.01 ± 0.013
129 | AAAGGTACGT | 0.987 ± 0.021
130 | AAAGGTAGAG | 1.01 ± 0.04
131 | AAAGGTCTGG | 0.9794 ± 0.0049
132 | AAAGGTTCAA | 1.03 ± 0.011
133 | AAAGGTTTGT | 1.02 ± 0.024
134 | AAAGTAGACA | 1.005 ± 0.0063
135 | AAAGTCTAAA | 0.977 ± 0.015
136 | AAAGTCTCGT | 0.972 ± 0.018
137 | AAAGTGATTA | 1.01 ± 0.022
138 | AAAGTGGTTC | 1.04 ± 0.053
139 | AAAGTGTGTT | 0.993 ± 0.025
140 | AAAGTTAATA | 0.9897 ± 0.0064
141 | AAAGTTACGT | 1.01 ± 0.044
142 | AAAGTTCGGG | 0.982 ± 0.033
143 | AAAGTTGCAG | 1.02 ± 0.023
144 | AAAGTTGTCT | 1.01 ± 0.028
145 | AAAGTTTGCG | 1.04 ± 0.11
146 | AAATAAAGCT | 1.07 ± 0.073
147 | AAATAAATTT | 1.01 ± 0.055
148 | AAATAACTAG | 0.99 ± 0.015
149 | AAATAACTTT | 1.027 ± 0.0051
150 | AAATAATGCA | 0.9863 ± 0.0076

Row | Sequence | switch fluorescence ratio
151 | AAATAATGGT | 1.02 ± 0.041
152 | AAATAATGT | 1.02 ± 0.016
153 | AAATACCGTT | 1.021 ± 0.0057
154 | AAATACGGGA | 1.17 ± 0.13
155 | AAATAGGCA | 0.981 ± 0.017
156 | AAATAGGGCT | 1.004 ± 0.0097
157 | AAATAGGGGG | 0.967 ± 0.026
158 | AAATATCTCA | 1.02 ± 0.013
159 | AAATATCTCT | 0.982 ± 0.048
160 | AAATATCTGC | 1.04 ± 0.029
161 | AAATATGACT | 1.06 ± 0.058
162 | AAATCAAATT | 1.007 ± 0.0055
163 | AAATCAGTGG | 0.998 ± 0.031
164 | AAATCATATT | 0.968 ± 0.0054
165 | AAATCATTAA | 1.02 ± 0.018
166 | AAATCCTTGT | 0.992 ± 0.039
167 | AAATCGAGGT | 0.9917 ± 0.0052
168 | AAATCGATGG | 0.9987 ± 0.0023
169 | AAATCGCCTT | 1.05 ± 0.02
170 | AAATCGTCGG | 0.991 ± 0.024
171 | AAATCTCGT | 0.995 ± 0.058
172 | AAATCTTTAT | 1.01 ± 0.032
173 | AAATGAAAAC | 0.98 ± 0.037
174 | AAATGAACCG | 1.06 ± 0.013
175 | AAATGAGATT | 1.002 ± 0.0048

Row | Sequence | switch fluorescence ratio
176 | AAATGCAGGT | 0.9908 ± 0.0061
177 | AAATGCCGAT | 0.992 ± 0.015
178 | AAATGCGGTA | 1 ± 0.056
179 | AAATGCTTG | 0.983 ± 0.019
180 | AAATGGGACT | 1.03 ± 0.026
181 | AAATGGGGGT | 0.975 ± 0.011
182 | AAATGGGTAC | 0.9935 ± 0.0099
183 | AAATGGGTTC | 0.9874 ± 0.0083
184 | AAATGGTGAT | 1.035 ± 0.0041
185 | AAATGGTGTA | 0.983 ± 0.028
186 | AAATGGTTGG | 0.995 ± 0.025
187 | AAATGTAAAA | 1.01 ± 0.042
188 | AAATGTCTAG | 1.01 ± 0.037
189 | AAATGTCTCT | 1.01 ± 0.012
190 | AAATGTTTAA | 1.01 ± 0.019
191 | AAATGTTTGT | 1.006 ± 0.0099
192 | AAATTAAAGG | 1 ± 0.013
193 | AAATTAGGAT | 0.997 ± 0.039
194 | AAATTAGGTC | 0.95 ± 0.11
195 | AAATTATTTC | 0.989 ± 0.033
196 | AAATTCAATG | 0.995 ± 0.013
197 | AAATTCATTA | 0.981 ± 0.083
198 | AAATTGCGAC | 1.03 ± 0.026
199 | AAATTGGACA | 1.04 ± 0.049
200 | AAATTGGGG | 0.9583 ± 0.0056
